# Literature values as cited in article PMC2627783.
# pKd: −log10 of the molar value.
# Biological target: IscU (Escherichia coli) (UniProt P0ACD4)
# Assay: ITC
# Chain of HscB (P0A6L9 whole entry): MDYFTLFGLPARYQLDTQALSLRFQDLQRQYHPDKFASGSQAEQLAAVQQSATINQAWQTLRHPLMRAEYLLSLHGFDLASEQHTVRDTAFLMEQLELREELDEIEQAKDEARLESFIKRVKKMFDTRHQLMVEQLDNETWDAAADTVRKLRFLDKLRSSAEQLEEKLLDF
# Chain of IscU (Escherichia coli) (P0ACD4 whole entry): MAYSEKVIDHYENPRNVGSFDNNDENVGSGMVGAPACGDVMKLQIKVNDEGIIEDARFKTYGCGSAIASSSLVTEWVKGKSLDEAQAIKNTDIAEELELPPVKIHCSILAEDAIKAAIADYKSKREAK
substance,measurement,value
HscB (from UniProt P0A6L9),pKd,5.00
